Legend:
Type in all cases: cell-based
gene editing with Cas9 = assay: Screen of 322 new SSAP proteins, gene editing activity with Cas9 (Table 5); design: Cas9 with SSAP activity: scale not given here
How it was run: (§1)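 First, 322 new single-strand annealing proteins are identified from sequences. Next they are synthesized. Finally each is assayed for editing in combination with Cas9 and, separately, dCas9.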

gene editing with dCas9 = assay: Screen of 322 new SSAP proteins, gene editing activity with dCas9 (Table 5); design: dCas9 with SSAP activity: scale not given here
How it was run: as §1

[1] = system: gene editing with Cas9 and dCas9; assay: Screen of 322 new SSAP proteins, activity across all experiments (Cas9 and dCas9, Table 5); design: scale not given here
How it was run: as §1

Molecule	Cas9 with SSAP activity (gene editing with Cas9)	Cas9 with SSAP activity (normalized) (gene editing with Cas9)	dCas9 with SSAP activity (gene editing with dCas9)	dCas9 with SSAP activity (normalized) (gene editing with dCas9)	Activity across all experiments [1]
SSAP_291: SEQ ID NO: 460; Nocardia pseudobrasiliensis (protein, listed as Nocardia pseudobrasiliensis) SSIANAANASELTPASIVNRYRDDIAAVLPPKLQARIDRWLRLAIGAVNSNADLVDRVRADQGASMMQTLMKCAALGHEPGSGLFHLVPKGPRIEGWEDYKGVLQRIDRSGVYARVVVEVVHANDDYAYDPNLDDRPQHKRAAADRGEPVSAYAYAVYPNGAVTAVAEATPELIAASKAKARGADNASSPWRAPGAPMHRKVAIRQLEKFVATSAEDMREVAVRNAAPDVEDAPADYYQEP	−4.531	−1.341	−4.458	−1.272	−4.494
SSAP_58: SEQ ID NO: 227; Pirellula sp. SH-Sr6A (protein, listed as Pirellula sp.) SEATKEAKPETAIAKKPNGIKDWLKSDALKTQIASVAPKHMAPERVMRIALNAVSRTPKLADCTPESFMRCLLDLSSWGLEPDGRHAHLIPYGTECTLVLDYKGLVTLAYRSGWVKKIHADVVFEGDIFVYSLGTVCQHIPWEFRDDANKPEHKGHFRAAYCVVTMADGIEKHEVMTASEIDAIKAKSRSGNSGPWKDHYTEMAKKTVYRRASKWLPLSPEQADAMERDDDRIIDAVSVAVTQRLSKAAMPLIGANETGDTE	−1.710	−0.437	−4.326	−0.647	−3.018
SSAP_76: SEQ ID NO: 245 (protein) ANELGIFSVDNLNMTTIKQYLDGGGKASDAELVLLINLCKQNNMNPFMKEVYFIKYGNQPAQIVVSRDFYRKRAFQNPNFAGIEVGVIVLNKDGVLEHNEGTFKTHEQELVGAWARVHLKNTEIPVYVAVSYDEYVQMKDGHPNKMWTNKPCTMLGKVAESQALRMAFPAEFSGTYGEEELPEPEKEPREVNGVKEPDRAQIESFDKEDYAARKIEELKEKAQPQKEVVKETGEVIDEITAEDF	−0.308	−0.267	−4.256	−0.591	−2.282
SSAP_272: SEQ ID NO: 441; Clostridium cadaveris (protein, listed as Clostridium cadaveris) ATNSSLKNQLSKKENVTIGNTMQGLLNNPKMKKRFEEILDKKAPQYMSSILNLYNGDTSLQKCEPMSVLSSSMIAATMDLPVDKNLGYAWIVPYKNKAQFQMGYKGYIQLALRTGQYKHINAIEIHEGELVNWNPLTEELEIDFTKKESDKIIGYAGYFELLNGFKKSTYWTKTQIENHRKKFSKSDYGWNKDFDAMAIKTVIRNMLSKWGILSIEMQNAYTADENIIKDSFIDDSENVSANIEDLVEADYTVNQDSLESKEEFEGTPLE	0.254	0.626	0.863	0.407	0.558
SSAP_72: SEQ ID NO: 241 (protein) ATNSSLKNQLSKKENVTIGNTMQGLLNNPKMKKRFEEILDKKAPQYMSSILNLYNGDTSLQKCEPMSVLSSSMIAATMDLPVDKNLGYAWIVPYKNKAQFQMGYKGYIQLALRTGQYKHINAIEIHEGELVNWNPLTEELEIDFTKKESDKIIGYAGYFELLNGFKKSTYWTKTQIENHRKKFSKSDYGWNKDFDAMAIKTVIRNMLSKWGILSIEMQNAYTADENIIKDSFIDDSENVSANIEDLVEADYTVNQDSLESKEEFEGTPLE	0.397	0.895	0.705	1.131	0.551
SSAP_226: SEQ ID NO: 395; Companilactobacillus furfuricola (protein, listed as Companilactobacillus furfuricola) VNNLAKLPIQTLVKEPKIVEKFESVLGNKSAQFVTSLINVVNSNQSLKNVDQMSVVASAMVAASLDLPINQDLGYMWLVPYGGKAQPQMGYKGYIQLAQRTGQYKHLNAVAVYEDEFQSYNPLTEQLDYEPHFKDRDSSEKPVGYVGYFELTSGFEKTVYWTRKQIDDHRQSFSKMSGKSKPSGVWATNFDAMALKTVLRNLISKWGPMSVEMQKAYESDEHATTISANDIKDIEVQEQEPATDVSQLINGSATEVNVNDSTTNSKDSE	−1.843	−1.377	−4.191	−0.610	−3.017
SSAP_14: SEQ ID NO: 183 (protein) TTALQTLTNKLAERFEMGDGSGLVETLKSSAFAGATVSDAQMIALLVIANQYQLNPWTKEIYAFPGGNGGLTPIVGVDGWVRIINREPQYDGMEFHFTDDYSACTCTIYRKDRSKPIVVTEFMGECKKSSPAWNSHPKRMLRHKAMIQCARLAFGFTGIYDQDEAERIAENEKPPKNITPQNNVVETTAVELISEEQLSQIRQLMQVTGTEEAKILAYIGVQALNQIPKSQAEAVIKKLNLTLDKQNAEKADNGESVGEEIPL	−0.331	−0.351	−4.263	−0.702	−2.297
SSAP_250: SEQ ID NO: 419; Streptococcus pseudoporcinus (protein, listed as Streptococcus pseudoporcinus) ANQLTVVNTLQSDAVKEKFEAVMGEKANGFVSSVLSVVTNNNLLAKADFNSVYTSAMKAAVLDLPVEPSLGMAYIVPYKGKAQFQIGYKGLIQLAQRSGKVTKLNSGKIYKGQFKSYNALSEELDIDDIYTPKEDEEVVGYFGYMKLSNGFEKITYWTKERVEKHGKKYSQSYDSKFSPWQTNFDAMAEKTVLKSILSTYAPLTIEMQNANDFDNGKNTGIEPLEVKDVTPENDNESLLSDLLEDEPSVDAETGEIMENTELDLDYGSINAK	−4.531	−1.341	−4.273	−1.117	−4.402
SSAP_232: SEQ ID NO: 401; Lactococcus fujiensis JCM 16395 (protein, listed as Lactococcus fujiensis) KSAPVQARFQEVLGKKSSGFVSSLLTVVNNNNLLKRATPDSIMTAAMKAATLDLPIEPSLGFAYIIPYGQEAQFQIGYKGLIQLALRSGQITGLNSGIVYKSQFISYDPLFEELEIDFMQPEDEVVGYFASMKLSNGFMKVVYWTKARVENHKKRFSKAGAKSPWATDFDAMAQKTVLKAMISKFAPLSQEMQIAVIADNESETLEPKDVTPEQPLISIDEPKENENSQSQISIPEDQAPQQENEEFVEELFPVGQA	−1.056	−0.259	−4.457	−0.721	−2.757
SSAP_299: SEQ ID NO: 468; Paenibacillus sp. JCM 10914 (protein, listed as Paenibacillus sp.) TMDYVTKIQDALDRELDAKHDALPSGFKKTRFSENCRAYVKDYKDLQKYDAEEVASVLFKGAVLGLDFLAKECHVITEGSALRFQTDYKGEMTLVKKYSVRPILDIYAKNVREGDDFREEISGGKPLIHFNPRAFNNSKITGSFAVALFTDGGMVYETMPAEEIESIREHYGKNPGSDTWEKSQGEMYKRTVLRRLCKTIEIDFDAEQSLAYEAGSSFEFDREQQPKKRSPFNPPEVEESEVLSNDGITETQ	−4.631	−0.809	−4.250	−0.686	−4.441
SSAP_164: SEQ ID NO: 333; Clostridium fimetarium (protein, listed as Clostridium fimetarium) ETIDIKQELASQAQTDSKKEVKLTKAMSIAEMIKAMMPEIKRALPSMITPERFTRIALSALNNTPELQACTPMSFISALLNAAQLGLEINSPLGHAYLIPYKNKGVLECQFQIGYLGLIALAYRNELMQTIQAQCVYENDEFLYEYGLNPKLVHRPATSDRGEPVFFYGLFKMINSGFGFCVMSKQEMDEFARTYSKGLASSFSPWKTSYNEMAKKTVIKQALKYAPIKTDFQKALSTDESIKYAISEDMTEAVNEIVSQNTEVA	−2.221	−0.998	−4.310	−0.557	−3.266
SSAP_313: SEQ ID NO: 482; Pedobacter nototheniae (protein, listed as Pedobacter nototheniae) STEQSQQQTAARVPAKFQEGTVDSILKRVSDFQNTGELVLPANYIPENAVRAAWLMLMETTDRNDKPAIEVCTKESIANAFLEMVTKGLSVVKKQCYFVVYGNKLSLEDSYIGKIAIAKREAGVKEVNAVTIYEGDIFKYENDIETGRKRILEHKQELKNINPDKIVGA	−0.432	−0.643	−4.259	−1.301	−2.345
SSAP_277: SEQ ID NO: 446; Nocardia terpenica (protein, listed as Nocardia terpenica) SSIAAAAESAEVTPASIINKYRDDIATVLPPKLRERIDRWIRLAIGAVNSNPELISRVRADQGASMMQALMKCAALGHEPGSGLFHLVPKGSRIEGWEDYKGILQRIDRSGVYARTVIGVVYANDEYSYDQNVDERPRHVRATGDRGEPISSYAYAVYPSGAITTVAEATPEQIASSKSKARGADNAASPWRAPGAPMHRKVAVRLLEKHVATSAEDRREPISRSAANDVVIDATADYYQEP	−1.480	−0.437	−4.435	−0.734	−2.958
